# Data taken from PMC7911073, “Overproduction of Human Zip (SLC39) Zinc Transporters in Saccharomyces cerevisiae for Biophysical Characterization” (Cells, 2021).
# B1: StrepII-TEV-hZIP1 (natural protein, human, UniProt Q9NY26 1-324, looked up)
# chain: MGPWGEPELLVWRPEAVASEPPVPVGLEVKLGALVLLLVLTLLCSLVPICVLRRPGANHEGSASRQKALSLVSCFAGGVFLATCLLDLLPDYLAAIDEALAALHVTLQFPLQEFILAMGFFLVLVMEQITLAYKEQSGPSPLEETRALLGTVNGGPQHWHDGPGVPQASGAPATPSALRACVLVFSLALHSVFEGLAVGLQRDRARAMELCLALLLHKGILAVSLSLRLLQSHLRAQVVAGCGILFSCMTPLGIGLGAALAESAGPLHQLAQSVLEGMAAGTFLYITFLEILPQELASSEQRILKVILLLAGFALLTGLLFIQI
# notes: human ZIP1 (hZIP1), full-length, codon-optimized cDNA; UniProt Q9NY26; A TEV protease site stands between the StrepII tag and hZIP1; not cleaved here; Predicted MW 36.5 kDa; also called N-terminal hZIP1 fusion; not shown: StrepII, N-terminal, kept
# B2: hZIP1-TEV-GFP-His (natural protein, human, UniProt Q9NY26 1-324, looked up)
# chain: B1 chain
# notes: human ZIP1 (hZIP1), full-length, codon-optimized cDNA synthesized by GenScript; UniProt Q9NY26; A TEV protease site (ENLYFQ↓SQF) stands between hZIP1 and GFP-His8; the fusion could not be cleaved by TEV protease; Predicted MW 63.3 kDa; also called hZIP1 C-terminally fused to TEV-GFP-His-tag; SLC39 family member; source: S. cerevisiae PAP1500, in whole-cell lysate; also purified from crude …
# B3: His-TEV-hZIP1 (natural protein, human, UniProt Q9NY26 1-324, looked up)
# chain: B1 chain
# notes: human ZIP1 (hZIP1), full-length, codon-optimized cDNA; UniProt Q9NY26; A TEV protease site stands between the His8 tag and hZIP1; also called N-terminal hZIP1 fusion; source: S. cerevisiae PAP1500, purified from crude membranes solubilized in 2% DDM + 0.2% CHS (IMAC); not shown: His8, N-terminal, kept
# Columns and labels:
# [1] = molecular target: the molecule itself; experiment: SDS-PAGE with Coomassie staining of SEC-pure samples (monomer and dimer bands); fractions of the main SEC peak in DDM + CHS
# [2] = molecular target: the molecule itself; experiment: SDS-PAGE with Coomassie staining and in-gel GFP fluorescence (monomer and dimer bands); IMAC eluate of hZIP1-TEV-GFP-His solubilized in 2% DDM + 0.68% CHS
# [3] = molecular target: the molecule itself; experiment: SDS-PAGE with Coomassie staining and immunoblot by the tag (monomer and dimer bands); affinity-pure fractions (IMAC or StrepII-tag affinity) of N-terminal hZIP1 fusions solubilized in 2% DDM + 0.2% CHS; blot with 6xHis mAb-HRP or Strep-Tactin HRP
protein,measurement,setting,value
B1,binding result,[1],binds
B2,binding result,[2],binds
B3,binding result,[3],binds
